Data reported in FireProtDB (doi:10.1002/pro.5560051112).
Where “and” joins values, the source holds several entries; their conditions need not be identical. Identical values can stand only once.

B1: Beta-glucanase wild type, P23904 (protein)
chain: MKKKSCFTLVTTFAFSLIFSVSALAGSVFWEPLSYFNRSTWEKADGYSNGGVFNCTWRANNVNFTNDGKLKLGLTSSAYNKFDCAEYRSTNIYGYGLYEVSMKPAKNTGIVSSFFTYTGPAHGTQWDEIDIEFLGKDTTKVQFNYYTNGVGGHEKVISLGFDASKGFHTYAFDWQPGYIKWYVDGVLKHTATANIPSTPGKIMMNLWNGTGVDDWLGSYNGANPLYAEYDWVKYTSN
B2: Beta-glucanase wild type, P07980 (protein)
chain: MKRVLLILVTGLFMSLCGITSSVSAQTGGSFFEPFNSYNSGLWQKADGYSNGDMFNCTWRANNVSMTSLGEMRLALTSPSYNKFDCGENRSVQTYGYGLYEVRMKPAKNTGIVSSFFTYTGPTEGTPWDEIDIEFLGKDTTKVQFNYYTNGAGNHEKFADLGFDAANAYHTYAFDWQPNSIKWYVDGQLKHTATTQIPAAPGKIMMNLWNGTGVDDWLGSYNGVNPIYAHYDWMRYRKK

Settings: pH 6, Thermal, DSC, Sodium cacodylate 2 mM, reversible: yes(>80%), whole UniProt chain shown; for unfolding free energy: 25 °C
[1] = Paenibacillus macerans, CaCl2 1 mM

Protein | unfolding free energy [1] [kcal/mol] | unfolding free energy (Paenibacillus macerans) [kcal/mol] | Tm [1] | unfolding enthalpy (calorimetric) [1] | Tm (Paenibacillus macerans) [°C] | unfolding enthalpy (calorimetric) (Paenibacillus macerans) [kcal/mol] | Tm (Bacillus amyloliquefaciens, CaCl2 1 mM) [°C] | Tm (Bacillus amyloliquefaciens) [°C]
B1 | 9 | 6.1 | 50.8 °C and 50.5 °C | 139 kcal/mol and 156 kcal/mol | 44.5 | 119 | – | –
B2 | – | – | – | – | – | – | 58.9 | 48.7
